Legend:
HUVEC = HUVEC co-cultured with U87MG: CCK-8 at basal chamber; assay type: cell-based, human; conditions: HUVEC/U87MG Transwell co-culture, 100 μM GL equivalent, 24 h
Protocol: (§1) To evaluate the inhibitory effect of Lf-GL on neovascularization in the tumor microenvironment in vitro, U87MG cells were seeded in the Transwell® insert chambers that were 6.5 mm in diameter and had 0.4 μm pore sizes (seeding density: 2.5 × 10^4 cells per well, Corning). HUVECs were seeded in the Transwell basal chamber (seeding density: 5.0 × 10^4 cells per well). GL, Lf, or Lf-GL (100 × 10^–6 M of GL equivalent concentration) were added to the insert chamber, and cells were incubated for 24 h. CCK-8 assay and HMGB1 ELISA were conducted at the basal chamber.

[1] = tested on: orthotopic GBM (U87MG) mice model; assay: Nissl staining: GBM/normal brain ratio; assay type: in vivo, Balb/c nude mice; conditions: daily i.v. GL equivalent 50 mg kg^−1, 14 days (control 37.5 ± 2.3)
From the text: (§2) After two weeks, mice were sacrificed, and the brains were harvested and fixed with paraformaldehyde (4%). Then, tissue processing was automatically conducted using a Leica TP1020 semi-enclosed Benchtop Tissue Processor (Leica Biosystems, Wetzlar, Hesse, Germany), followed by embedding in paraffin blocks. Paraffin blocks were sliced into 5 μm thick slices using a Leica RM2145 Microtome (Leica Biosystems). Nissl staining was used to stain brain tissue slides with pre-warmed 0.1% Cresyl Violet Stain Solution (Abcam). TUNEL assays were conducted following the manufacturer’s instructions. For immunofluorescence staining; anti-HMGB1 antibody (Abcam), anti-Ki67 antibody (Abcam), anti-CD31 antibody (Abcam), and anti-VEGF antibody (Abcam) were used as primary antibodies, and goat anti-rabbit IgG-H&L Alexa Fluor 488 and goat anti-rabbit IgG H&L Alexa Fluor 647 were used as secondary antibodies, followed by DAPI mounting.

CD31 = assay: Immunofluorescence staining of CD31 in GBM tissue; assay type: in vivo, Balb/c nude mice; conditions: GBM mice, daily i.v., 14 days (control MFI 14.7 ± 1.4)
From the text: as §2

[2] = tested on: U87MG human glioma cell line; assay: Cell viability test (CCK-8) in U87MG; assay type: cell-based; conditions: 50 μM GL equivalent, after 48 h treatment
Protocol: Cell viability was determined using a cell counting kit-8 (CCK-8). U87MG and HUVECs (seeding density: 0.75 × 10^4 cells per well) in 96-well culture plates were treated with GL, Lf, or Lf-GL (25 to 200 × 10^–6 M of GL equivalent concentration) and were incubated for different periods of time (24, 48, and 72 h). After washing with PBS, they were treated with a cell culture medium containing a CCK-8 assay kit (Abbkine) and were incubated at 37 °C and 5% CO2 for 2 h. Then, absorbance was measured at 450 nm in a micro-plate reader (VLBL00D0, Thermo Fisher Scientific). Results were quantified using Sigma Plot (Systat Software, USA). To determine the effect of extracellular HMGB1 in GBM and endothelial cell proliferation, U87MG and HUVECs were seeded in 96-well culture plates (seeding density: 0.75 × 10^4 cells per well) and GL, Lf, or Lf-GL (50 × 10^–6 M GL equivalent concentration) were added to cells with or without HMGB1 protein (U87MG: 0.1 μg mL^−1, and HUVEC: 1 μg mL^−1). Cells were incubated for different periods of time (24, 48, and 72 h).

HMGB1 [3] = assay: Immunofluorescence staining of HMGB1 in GBM tissue; assay type: in vivo, Balb/c nude mice; conditions: GBM mice, daily i.v. GL equivalent 50 mg kg^−1, 14 days (control 15.3 ± 1.7)
From the text: as §2

[4] = tested on: orthotopic GBM (U87MG) mice model; assay: Survival in orthotopic GBM mouse model; assay type: in vivo, Balb/c nude mice; conditions: i.v. GL equivalent 50 mg kg^−1 (Lf 5 mg kg^−1)
Protocol: To establish the orthotopic GBM mice model, GBM cells (U87MG, inoculation density: 1.0 × 10^6 cells per 10 μL) were stereotactically injected into the right striatum of Balb/c nude mice. Then, mice were randomly divided into four groups (n = 5): control, GL, Lf, and Lf-GL treated group. […] After four weeks, mice were sacrificed, and organs were harvested and fixed with 4% paraformaldehyde for further analysis.

[5] = target: T1, human recombinant HMGB1 protein (Homo sapiens, UniProt P09429); assay: SPR binding affinity against HMGB1; conditions: SPR, HMGB1 immobilized
T1 construct: purchased Abcam
T1 sequence (P09429 1-215): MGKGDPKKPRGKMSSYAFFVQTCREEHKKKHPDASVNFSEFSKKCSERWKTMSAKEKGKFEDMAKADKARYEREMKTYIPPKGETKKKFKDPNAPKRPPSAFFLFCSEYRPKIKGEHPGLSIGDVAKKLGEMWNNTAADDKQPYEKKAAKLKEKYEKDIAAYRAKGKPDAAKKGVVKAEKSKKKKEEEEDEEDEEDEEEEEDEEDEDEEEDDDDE
Protocol: To confirm the binding affinity of Lf-GL to HMGB1, Surface Plasmon Resonance (SPR) was conducted at WoojungBSC (Korea). The Reichert SR7500DC system (Reichert technologies, NA, USA) and Scrubber2 software (Biologic software, FRA) were used, and a CMDH chip (Cat #: 13,206,066, Reichert technologies) was used for immobilization of the human recombinant HMGB1 protein (Abcam). HMGB1 protein was used as a ligand, and the analytes were HMGB1 antibody (Abcam), GL, Lf and Lf-GL conjugate. The immobilization buffer was S.A. (10 × 10^–3 M, pH 4.5), and the running buffer was PBS (pH 7.4). The flow rate of the analyte was 30 μL min^−1. The association and dissociation time were 3 min each, and measurements were conducted at room temperature. Results are expressed in response units (RU) over time.
Fig. S5. Binding affinity against HMGB1. Surface Plasmon Resonance (SPR) was conducted at WoojungBSC (Korea). The Reichert SR7500DC system (Reichert technologies, NA, USA) and Scrubber2 software(Biologic software, FRA) were used and the CMDH chip (Cat #: 13206066, Reichert technologies) was used for immobilization of the human recombinant HMGB1 protein (Abcam). HMGB1 protein was used as ligand and analytes were HMGB1 antibody (Abcam), GL, Lf and Lf-GL conjugate. Immobilization buffer was 10 mM S.A. (pH 4.5) and running buffer was 1× PBS. The flow rate of the analyte was 30 μL min^-1. The association and dissociation time were 3 min each and conducted at room temperature. Results are expressed in response units (RU) over time.

HMGB1 [6] = assay: HMGB1 ELISA of U87MG culture medium; assay type: cell-based, human; conditions: 50 μM GL equivalent, 48 h (control 131.8 ± 11.4)
Protocol: U87MG cells were seeded in 100 mm-cell culture dishes (2.2 × 10^6 cells per dish) and treated with GL, Lf, or Lf-GL (50 × 10^–6 M GL equivalent concentration) for 48 h. After incubating, cells were collected using a cell scrapper and were centrifuged for 3 min at 150 × g. Supernatant was collected as cell culture medium, and pellets were washed with cold PBS twice and transferred into a microcentrifuge tube. Tubes were centrifuged, and then pellets were resuspended in 500 μL 1X hypotonic buffer and incubated on ice. Then, 25 μL of NP40 was added and the mixture was agitated using a vortex mixer at the highest setting. Homogenates were centrifuged for 10 min at 842 × g at 4℃. Supernatant was collected as the cytoplasmic fraction, and pellets were resuspended in cell extraction buffer (50 μL) and were incubated for 30 min on ice with vortexing at 10 min intervals. Then, homogenates were centrifuged for 30 min at 14,000 × g at 4℃. Supernatant was collected as the nuclear fraction. The amount of HMGB1 in the samples was measured using a HMGB1 ELISA kit (Abbkine), and absorbance was measured at 450 nm in a micro-plate reader. A DNA assay (Quant-iT™ dsDNA Assay Kit, Invitrogen) was also conducted to express HMGB1 concentrations in equivalent amounts of DNA.

HMGB1 [7] = assay: HUVEC co-cultured with U87MG: HMGB1 ELISA; assay type: cell-based, human; conditions: HUVEC/U87MG co-culture, 100 μM GL equivalent, 24 h (control 217.8 ± 5.9)
Protocol: as §1

[8] = tested on: orthotopic GBM (U87MG) mice model; assay: TUNEL assay of GBM tissue; assay type: in vivo, Balb/c nude mice; conditions: daily i.v., 14 days (control 28.5 ± 4.8)
From the text: as §2

U87MG cells = assay: Cellular uptake of FITC-tagged Lf-GL (flow cytometry); assay type: cell-based, human; conditions: 2 h incubation, Lf pre-treatment 500 nM
Protocol: To verify cellular uptake of Lf-GL, U87MG cells (seeding density: 2.5 × 10^4 cells per well) in an 8 well Nunc™ Lab-Tek II chambered coverglass (Thermo Scientific) were treated with FITC-tagged Lf-GL (1 × 10^–6 M) for different time periods (0 to 18 h). After washing with PBS, cells were treated with lysotracker (75 × 10^–9 M) and incubated for 2 h. Then, cells were fixed with 4% paraformaldehyde followed by DAPI mounting. Confocal laser scanning microscopy (SP8 X, Leica, Germany) was used to observe intracellular fluorescence, and images were processed using LAS X software (Leica).
Fig. S11. Significant cellular uptake of Lf-GL in U87MG. (a) Flow cytometry to evaluate cellular uptake of FITC tagged-Lf-GL (1 µM) in U87MG for 2,6, and 18 h. The 2 h pre-treatment of Lf and Pitstop® were treated in the concentration of 500 nM and 75 nM, respectively. (b) Quantification of cellular uptake for 18 h. Data were expressed as mean ± S.E.M (n=2).

Row | Molecule | Reduction of endothelial cell proliferation (HUVEC) [%] | GBM/normal brain ratio [1] | Decrease of MFI of CD31 (CD31) [fold] | Number of cells, % of the original count [2] [%] | Mean fluorescence intensity (MFI) of HMGB1 (HMGB1 [3]) | Mice survived up to 28 days [4] [%] | Additional days of survival versus PBS control ([4]; 28 days) [days] | KD, equilibrium dissociation constant (KD = Kd Ka^−1) [5] [nM] | Ka, association rate constant ([5]; PBS pH 7.4, room temperature) | HMGB1 released into the medium of U87MG cells (HMGB1 [6]) [ng/mL] | HMGB1 level in medium (HMGB1 [7]) [ng/mL] | TUNEL MFI [8] | Decrease of cellular internalization in the presence of Lf (U87MG cells)
1 | lactoferrin (protein, UniProt P02788 20-710, looked up) Lactotransferrin: GRRRSVQWCAVSQPEATKCFQWQRNMRKVRGPPVSCIKRDSPIQCIQAIAENRADAVTLDGGFIYEAGLAPYKLRPVAAEVYGTERQPRTHYYAVAVVKKGGSFQLNELQGLKSCHTGLRRTAGWNVPIGTLRPFLNWTGPPEPIEAAVARFFSASCVPGADKGQFPNLCRLCAGTGENKCAFSSQEPYFSYSGAFKCLRDGAGDVAFIRESTVFEDLSDEAERDEYELLCPDNTRKPVDKFKDCHLARVPSHAVVARSVNGKEDAIWNLLRQAQEKFGKDKSPKFQLFGSPSGQKDLLFKDSAIGFSRVPPRIDSGLYLGSGYFTAIQNLRKSEEEVAARRARVVWCAVGEQELRKCNQWSGLSEGSVTCSSASTTEDCIALVLKGEADAMSLDGGYVYTAGKCGLVPVLAENYKSQQSSDPDPNCVDRPVEGYLAVAVVRRSDTSLTWNSVKGKKSCHTAVDRTAGWNIPMGLLFNQTGSCKFDEYFSQSCAPGSDPRSNLCALCIGDEQGENKCVPNSNERYYGYTGAFRCLAENAGDVAFVKDVTVLQNTDGNNNEAWAKDLKLADFALLCLDGKRKPVTEARSCHLAMAPNHAVVSRMDKVERLKQVLLHQQAKFGRNGSDCPDKFCLFQSETKNLLFNDNTECLARLHGKTTYEKYLGPQYVAGITNLKKCSTSPLLEACEFLRK | 8.2 ± 2.9 | 29.7 ± 3.3 | ~2 | 69.6 ± 5.7 | 7.9 ± 1.4 | 25 | 5 | 165 ± 3 | (8.1±0.1)·10^4 M^-1s^-1 | 114 ± 3.4 | 177.3 ± 3.6 | 9.4 ± 1.6 | 
2 | Lf-GL-FITC: FITC-tagged Lf-GL for cellular uptake studies (conjugate, UniProt P02788 20-710, looked up, FITC label; GL conjugate, FITC-tagged Lf-GL for cellular uptake studies) Lactotransferrin: GRRRSVQWCAVSQPEATKCFQWQRNMRKVRGPPVSCIKRDSPIQCIQAIAENRADAVTLDGGFIYEAGLAPYKLRPVAAEVYGTERQPRTHYYAVAVVKKGGSFQLNELQGLKSCHTGLRRTAGWNVPIGTLRPFLNWTGPPEPIEAAVARFFSASCVPGADKGQFPNLCRLCAGTGENKCAFSSQEPYFSYSGAFKCLRDGAGDVAFIRESTVFEDLSDEAERDEYELLCPDNTRKPVDKFKDCHLARVPSHAVVARSVNGKEDAIWNLLRQAQEKFGKDKSPKFQLFGSPSGQKDLLFKDSAIGFSRVPPRIDSGLYLGSGYFTAIQNLRKSEEEVAARRARVVWCAVGEQELRKCNQWSGLSEGSVTCSSASTTEDCIALVLKGEADAMSLDGGYVYTAGKCGLVPVLAENYKSQQSSDPDPNCVDRPVEGYLAVAVVRRSDTSLTWNSVKGKKSCHTAVDRTAGWNIPMGLLFNQTGSCKFDEYFSQSCAPGSDPRSNLCALCIGDEQGENKCVPNSNERYYGYTGAFRCLAENAGDVAFVKDVTVLQNTDGNNNEAWAKDLKLADFALLCLDGKRKPVTEARSCHLAMAPNHAVVSRMDKVERLKQVLLHQQAKFGRNGSDCPDKFCLFQSETKNLLFNDNTECLARLHGKTTYEKYLGPQYVAGITNLKKCSTSPLLEACEFLRK |  |  |  |  |  |  |  |  |  |  |  |  | about 17%

— paper PMC10200060, “Inhibition of DAMP actions in the tumoral microenvironment using lactoferrin-glycyrrhizin conjugate for glioblastoma therapy” (Biomaterials Research, 2023)
